Reference: PMC5384750 (PLoS ONE, 2017)
“And” between values parts separate entries of the source, which are not always exact repeats. Equal entries are not always repeated.

Assays:
[1] = target: IDE (S10 extract or rIDE) (Homo sapiens, UniProt P14735); type: in vitro ADME; conditions: 30 ng vp6, 5 μg S10 extract, up to 60 min; Western blot densitometry; at least 3 independent experiments
Protocol: Fig 9 Multiplication of PTAPPA-motifs stabilizes p6. 20 ng of sp6 or 30 ng of vp6 were incubated either with 5 μg S10 extract (A/B/C) or 2 ng of rIDE (D) for up to 60 min. Degradation efficiency was quantified via densitometric analyses of Western blots. Values represent the arithmetic mean ± SD of at least 3 independent experiments for each setting.
Typically 5 μg S10 were incubated with inhibitor or buffer and 20–100 ng sp6 at 37°C for 30 min. Reactions were stopped by addition of sample buffer and incubation at 95°C for 5 min. Remaining p6 was detected by Western blotting using an anti-p6 rabbit antiserum. Alternatively, 10 ng of BODIPY FL-labeled sp6 (sp6BY) were used as substrate and detected directly in the polyacrylamide gel by fluorescence scanning. In some experiments the amount of p6 was densitometrically quantified with the software AIDA (Raytest). For the in vitro degradation of amyloid-β 10 ng of Aβ-FITC (abcam) were used analogously to sp6BY. For the in vitro degradation of viral p6, VLPs were pelleted and lysed in IDE enzyme buffer (150 mM NaCl, 50 mM Tris pH 7.4, 0.5% (v/v) Triton X-100). The p6 content was estimated by Western blotting using a dilution series of sp6 with known concentrations. Equivalents of 15 ng were used for digestion experiments and subsequently detected by Western blotting. […]

[2] = target: T1, insulin-degrading enzyme (IDE) (Homo sapiens, UniProt P14735); assay: Inhibition of Aβ-FITC degradation in S10 extract; type: biochemical; conditions: titration; 10 ng Aβ-FITC, 5 μg S10, 45 min, 37°C; fluorescence
T1 construct: endogenous in cells; host or cells: HeLa cells (cytosolic S10 extract)
Protocol: […] Reactions were stopped by addition of sample buffer and incubation at 95°C for 5 min. Remaining p6 was detected by Western blotting using an anti-p6 rabbit antiserum. Alternatively, 10 ng of BODIPY FL-labeled sp6 (sp6BY) were used as substrate and detected directly in the polyacrylamide gel by fluorescence scanning. In some experiments the amount of p6 was densitometrically quantified with the software AIDA (Raytest). For the in vitro degradation of amyloid-β 10 ng of Aβ-FITC (abcam) were used analogously to sp6BY. For the in vitro degradation of viral p6, VLPs were pelleted and lysed in IDE enzyme buffer (150 mM NaCl, 50 mM Tris pH 7.4, 0.5% (v/v) Triton X-100). The p6 content was estimated by Western blotting using a dilution series of sp6 with known concentrations. Equivalents of 15 ng were used for digestion experiments and subsequently detected by Western blotting. Experiments carried out with recombinant IDE (Calbiochem) were performed in IDE enzyme buffer. Recombinant FITC-labeled insulin was purchased from Sigma.
Supplementary file pone.0174254.s003.tif: S3 Fig p6 competes with the in vitro degradation of Aβ. […] Aβ-FITC was detected by measurement of fluorescence excitation. The band marked with * represents Aβ-oligomers and has been described earlier. (B) Band intensities were quantified for four independent experiments and values represent the arithmetic mean ± SD. […]

[3] = target: T2, recombinant IDE (rIDE) (Rattus norvegicus, UniProt P35559); assay: Inhibition of rIDE-mediated degradation of sp6BY; type: biochemical; conditions: 10 ng rIDE, 10 ng sp6BY, 30 min, 37°C; TPEN 1 mM, NEM 1 mM, insulin 100 μg/ml
T2 construct: purchased Calbiochem
Protocol: Fig 6 IDE is sufficient and required for the in vitro degradation of sp6 and vp6. (A) 10 ng sp6BY were incubated with 5 μg S10 extract from HeLa cells, either untransfected or transfected with control or IDE-specific siRNA, for 0, 10, 30 or 90 min at 37°C. (B) sp6BY was detected by fluorescence emission and quantified. (C) VLP lysates from HEK293T cells were incubated with S10 from siRNA treated cells described in A. Viral proteins were detected as described in Fig 1. (D) Western blot analyses of the S10 extract used in A and C. The membrane was stained with antibodies specific for IDE, HSP70, and β-actin. […] (F) VLP lysates were incubated with 10 ng rIDE for 30 min.
Typically 5 μg S10 were incubated with inhibitor or buffer and 20–100 ng sp6 at 37°C for 30 min. Reactions were stopped by addition of sample buffer and incubation at 95°C for 5 min. Remaining p6 was detected by Western blotting using an anti-p6 rabbit antiserum. Alternatively, 10 ng of BODIPY FL-labeled sp6 (sp6BY) were used as substrate and detected directly in the polyacrylamide gel by fluorescence scanning. In some experiments the amount of p6 was densitometrically quantified with the software AIDA (Raytest). For the in vitro degradation of amyloid-β 10 ng of Aβ-FITC (abcam) were used analogously to sp6BY. For the in vitro degradation of viral p6, VLPs were pelleted and lysed in IDE enzyme buffer (150 mM NaCl, 50 mM Tris pH 7.4, 0.5% (v/v) Triton X-100). The p6 content was estimated by Western blotting using a dilution series of sp6 with known concentrations. Equivalents of 15 ng were used for digestion experiments and subsequently detected by Western blotting. Experiments carried out with recombinant IDE (Calbiochem) were performed in IDE enzyme buffer. Recombinant FITC-labeled insulin was purchased from Sigma.

[4] = tested on: R5-tropic HIV-1NL4-3; assay: HIV-1 replication capacity in activated PBMCs (RT activity, AUC); type: cell-based; conditions: 50 μg/ml insulin or 10 μM 6bK, permanent treatment; PHA-IL2-stimulated PBMCs from 3 different donors
Protocol: (§1) For infection, PBMCs were isolated from buffy coats of several blood donors and stimulated with PHA and IL-2 for three days. 1×10^6 PBMCs were incubated overnight with virus preparations equivalent to 0.031 ng of p24, and cell culture supernatant was collected every second or third day post infection (dpi). […] Virus replication was assessed by quantification of the virus-associated RT activity by [^32P]-TTP incorporation, using an oligo(dT)-poly(A) template as described elsewhere. In case of replications with inhibitor treatment, cell viability was determined in parallel by WST-1 assay (Roche) according to the manufacturer’s instructions on the last day of replication. For estimation of the multiplicity of infection (MOI), infectious units of virus stocks were determined by TCID50 end point titration in activated PBMCs. The number of HIV-1 target cells was estimated to be 50% of total PBMCs as reported in [93]. The MOI was calculated as the ratio of infectious units per target cells and was ~10^−4 in case of 0.031 ng p24 of input virus.
(§2) To determine the replication capacity of HIV-1 following infection with the indicated HIV-1 variants, the respective replication profiles were depicted as diagram (y-axis: RT activity; x-axis: dpi) and the area under curve was calculated and defined as the corresponding replication capacity of the HIV-1 variants. In every experiment the replication capacity of the untreated wt was set to 100% and compared with the indicated variants. Viability of treated cells was assessed on the last day of replication by the water-soluble tetrazolium method. All conditions were not found to diminish cell viability.

[5] = tested on: X4-tropic HIV-1NL4-3 3xPTAPPA mutant; assay: as above; type: cell-based; conditions: 50 μg/ml insulin or 10 μM 6bK, permanent treatment; PHA-IL2-stimulated PBMCs from 3 different donors
Protocol: as §1, §2

[6] = tested on: X4-tropic HIV-1NL4-3 wt; assay: as above; type: cell-based; conditions: continuous treatment with 50 μg/ml insulin; PHA-IL2-stimulated PBMCs from 3 different donors; MOI ~10^−4; untreated wt = 100%
Protocol: as §1, §2

[7] = tested on: X4-tropic field isolate HIV-1 BK132; assay: as above; type: cell-based; conditions: 50 μg/ml insulin or 10 μM 6bK, permanent treatment; PHA-IL2-stimulated PBMCs from 3 different donors (S6 Fig)
Protocol: as §1, with “The number of HIV-1 target cells was estimated to be 50% of total PBMCs as reported in [93].” left out
as §2, with “In every experiment the replication capacity of the untreated wt was set to 100% and compared with the indicated variants.” left out, “All conditions were not found to diminish cell viability.” left out

[8] = tested on: purified mammalian IDE; conditions: purified mammalian IDE; cited from earlier work

T2 sequence (P35559 whole entry): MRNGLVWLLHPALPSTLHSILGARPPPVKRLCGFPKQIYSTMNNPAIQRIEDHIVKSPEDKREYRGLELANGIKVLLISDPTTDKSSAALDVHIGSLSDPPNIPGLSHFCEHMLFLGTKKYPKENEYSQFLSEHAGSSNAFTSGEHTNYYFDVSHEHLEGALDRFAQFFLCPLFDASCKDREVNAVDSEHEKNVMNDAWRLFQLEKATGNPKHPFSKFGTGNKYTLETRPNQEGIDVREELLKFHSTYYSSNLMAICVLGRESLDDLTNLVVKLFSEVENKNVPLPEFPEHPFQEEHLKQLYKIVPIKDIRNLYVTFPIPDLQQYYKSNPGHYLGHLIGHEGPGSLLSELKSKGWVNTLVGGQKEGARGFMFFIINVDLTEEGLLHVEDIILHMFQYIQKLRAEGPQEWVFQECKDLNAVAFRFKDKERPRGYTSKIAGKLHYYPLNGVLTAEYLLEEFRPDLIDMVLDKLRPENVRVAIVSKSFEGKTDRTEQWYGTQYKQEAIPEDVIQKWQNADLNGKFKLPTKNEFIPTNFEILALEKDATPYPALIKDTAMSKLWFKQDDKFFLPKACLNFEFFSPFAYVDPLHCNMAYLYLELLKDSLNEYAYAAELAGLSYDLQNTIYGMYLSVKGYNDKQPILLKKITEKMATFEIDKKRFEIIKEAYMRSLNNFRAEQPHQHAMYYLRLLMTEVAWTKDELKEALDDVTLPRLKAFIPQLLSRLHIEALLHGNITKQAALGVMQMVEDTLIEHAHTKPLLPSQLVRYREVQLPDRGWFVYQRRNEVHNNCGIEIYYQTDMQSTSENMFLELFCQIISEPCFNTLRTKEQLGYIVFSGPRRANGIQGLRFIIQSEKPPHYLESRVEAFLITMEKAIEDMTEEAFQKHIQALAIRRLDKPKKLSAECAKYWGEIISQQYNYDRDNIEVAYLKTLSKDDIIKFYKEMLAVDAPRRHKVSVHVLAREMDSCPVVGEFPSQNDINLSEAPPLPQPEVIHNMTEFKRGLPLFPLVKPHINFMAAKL

| Molecule | degradation kinetics of vp6 mutants in S10 [1] | effect on degradation of Aβ-FITC [2] | stabilization of sp6 in the presence of rIDE [3] | effect on replication capacity of R5-tropic HIV-1 (wt and 3xPTAPPA) [4] | effect on replication capacity of the IDE-insensitive 3xPTAPPA mutant [5] | reduction of HIV-1 replication (replication capacity, AUC of RT activity) [6] | effect on replication capacity of HIV-1 BK132 compared with HIV-1NL4-3 [7] | Km [8] [µM] | kcat [8] [s⁻¹] |
| --- | --- | --- | --- | --- | --- | --- | --- | --- | --- |
| CC[C@H](C)[C@H](NC(=O)[C@@H]1CCCN1C(=O)[C@H](CCC(=O)O)NC(=O)[C@H](CCC(N)=O)NC(=O)[C@H](CCCCN)NC(=O)[C@H](CCC(N)=O)NC(=O)[C@H](CO)NC(=O)[C@@H]1CCCN1C(=O)[C@@H](NC(=O)[C@@H](NC(=O)[C@@H](NC(=O)[C@H](CCC(=O)O)NC(=O)[C@H](CCC(=O)O)NC(=O)CNC(=O)[C@H](Cc1ccccc1)NC(=O)[C@H](CCCNC(=N)N)NC(=O)[C@H](Cc1ccccc1)NC(=O)[C@H](CO)NC(=O)[C@H](CCC(=O)O)NC(=O)[C@H](C)NC(=O)[C@@H]1CCCN1C(=O)[C@@H]1CCCN1C(=O)[C@H](C)NC(=O)[C@@H](NC(=O)[C@H](CC(C)C)NC(=O)[C@H](C)NC(=O)[C@@H]1CCCN1C(=O)[C@@H]1CCCN1C(=O)[C@H](C)NC(=O)[C@@H](NC(=O)[C@@H]1CCCN1C(=O)[C@H](CCC(=O)O)NC(=O)[C@@H]1CCCN1C(=O)[C@H](CCCNC(=N)N)NC(=O)[C@H](CO)NC(=O)[C@H](CCC(N)=O)NC(=O)[C@@H](N)CC(C)C)[C@@H](C)O)[C@@H](C)O)[C@@H](C)O)[C@@H](C)O)[C@@H](C)O)C(=O)N[C@@H](CC(=O)O)C(=O)N[C@@H](CCCCN)C(=O)N[C@@H](CCC(=O)O)C(=O)N[C@@H](CC(C)C)C(=O)N[C@@H](Cc1ccc(O)cc1)C(=O)N1CCC[C@H]1C(=O)N[C@@H](CC(C)C)C(=O)N[C@@H](C)C(=O)N[C@@H](CO)C(=O)N[C@@H](CC(C)C)C(=O)N[C@@H](CCCNC(=N)N)C(=O)N[C@@H](CO)C(=O)N[C@@H](CC(C)C)C(=O)N[C@@H](Cc1ccccc1)C(=O)NCC(=O)N[C@@H](CO)C(=O)N[C@@H](CC(=O)O)C(=O)N1CCC[C@H]1C(=O)N[C@@H](CO)C(=O)N[C@@H](CO)C(=O)N[C@@H](CCC(N)=O)C(=O)O [PL] | comparable to their 2x and 3x counterparts |  |  |  |  |  |  |  |  |
| insulin |  | resulted in a stabilization of Aβ-FITC | stabilized sp6 | insensitive to exogenous insulin | insensitive to insulin treatment | ~ 50% and 50% | same impact | 0.066 | 0.025 |
